In article PMC10495264 (Nature Cell Biology, 2023):

Legend:
yeast cells = test: Drop spot growth assays on rapamycin and/or cerulenin plates; format: cell-based, Saccharomyces cerevisiae; details: low / sublethal doses combined
Experimental: Yeast cells (Saccharomyces cerevisiae) were cultured in liquid SC medium (1.7 g l^−1 yeast nitrogen base (cat. no. 1545, CONDA), 5 g l^−1 ammonium sulfate (cat. no. 4808211, MP Biomedicals), 20 g l^−1 glucose (cat. no. 1422, AppliChem), 2 g l^−1 amino acid dropout –His (D9520, US Biological) and 35 mg l^−1 histidine (A1341, AppliChem) at 30 °C to the exponential growth phase, unless otherwise stated in the figure legends. All yeast strains used in this study are listed in Supplementary Table 1.

[1] = target: TORC1 containing the N-terminally GFP-tagged Tor1 subunit (Saccharomyces cerevisiae) (UniProt P35169); test: MST; GFP–Tor1-containing TORC1 (7.5 nM) as fluorescent target, 16 twofold dilutions of Acc1 (highest 80 nM) or Fas1 (highest 20 nM); 50 mM HEPES NaOH pH 7.5, 150 mM NaCl; 30 °C; Monolith NT.115
TORC1 [2] = target: T1, TORC1 (Saccharomyces cerevisiae, UniProt P35169); test: MST binding affinity assays with fluorescent TORC1 (GFP–Tor1)
T1 construct: made in house; host or cells: S. cerevisiae strain NIC005 ([RL170-2c] LEU2:GFP-TOR1)

TORC1 [3] = target: T1, TORC1; test: as above; details: for Kd: purified yeast proteins, GFP–Tor1-containing TORC1 7.5 nM, 30 °C, mean ± s.d., n = 3, read-out: Kd (binding to TORC1, MST); for Fraction bound transformed (MST, TORC1 target): Fig. 6d,e
Experimental: The MST experiments were performed using a Monolith NT.115 (Nanotemper Technologies). Purification of TORC1 containing the N-terminally GFP-tagged Tor1 subunit was carried out as described previously. For the protein–protein interaction experiments, GFP–Tor1-containing TORC1 (7.5 nM) was mixed with a series of twofold dilutions (a total of 16 samples) of Acc1 (highest concentration, 80 nM) or Fas1 (highest concentration, 20 nM) purified from yeast through TAP-tag immuno-enrichment with rabbit IgG-coated magnetic beads and subsequent TEV cleavage in elution buffer (50 mM HEPES NaOH pH 7.5 and 150 mM NaCl) for 1 h at 18 °C. The samples were loaded into Monolith NT.115 capillaries and MST measurements were performed using 80% laser power and medium MST power setting at 30 °C. For the small molecule–protein interaction experiments, GFP–Tor1-containing TORC1 (7.5 nM) was mixed with a series of twofold dilutions (a total of 16 samples) of Mal-CoA (M4263, Sigma-Aldrich; highest concentration, 5 mM) dissolved in 50 mM HEPES pH 7.5. The samples were loaded into Monolith NT.115 capillaries and MST measurements were performed using 80% laser power and medium MST power setting at 30 °C. The experiments were performed in triplicate and data were fitted using the Kd model of the MO.Affinity Analysis software (Nanotemper Technologies). The signal-to-noise ratio represents the response amplitude divided by the noise of the measurement. The Kd value was obtained by plotting the bound fraction against the log-transformed ligand concentration.

[4] = system: intracellular TAG and palmitate (C16:0) levels; test: TAG and palmitate (C16:0) measurements by LC-HRMS; format: cell-based, human; details: ED Fig. 5t; compared with BSA
Experimental: The intracellular levels of TAGs and palmitate (C16:0) were determined using liquid chromatography-high resolution mass spectrometry-based analysis. Briefly, cells were seeded in 10-cm dishes and treated as described in the ‘Mammalian cell culture treatments’ section. The cells were scraped in medium and collected by centrifugation (400g, 3 min). The pellets were then washed three times with 1 ml ice-cold PBS, snap frozen in liquid nitrogen and kept at −80 °C until further processing.
The samples were vortexed for 10 s immediately after the addition of the extraction buffer and then incubated for 30 min on an orbital shaker at 4 °C. The proteins were pelleted by centrifugation (10 min, 21,000g, 4 °C) and the supernatants were transferred to a clean 2-ml tube. […]
The lipid pellets were resuspended in 200 µl ultra-performance liquid chromatography (UPLC)-grade acetonitrile:isopropanol 70:30 (vol/vol). […] In both cases, the analysed mass range was in the range of m/z 150–1,500. […]
All samples were analysed in a randomized run order. […] For measurements of intracellular TAG abundance (Extended Data Fig. 5r), the sum of all values corresponding to the peak areas for the different individual TAGs was calculated for each sample.

[5] = titrated protein 4.88281e-9 M, Fig. 6d,e
[6] = titrated protein 3.90625e-8 M, Fig. 6d,e
[7] = titrated protein 1.5625e-7 M, Fig. 6d,e

T1 sequence (P35169 whole entry): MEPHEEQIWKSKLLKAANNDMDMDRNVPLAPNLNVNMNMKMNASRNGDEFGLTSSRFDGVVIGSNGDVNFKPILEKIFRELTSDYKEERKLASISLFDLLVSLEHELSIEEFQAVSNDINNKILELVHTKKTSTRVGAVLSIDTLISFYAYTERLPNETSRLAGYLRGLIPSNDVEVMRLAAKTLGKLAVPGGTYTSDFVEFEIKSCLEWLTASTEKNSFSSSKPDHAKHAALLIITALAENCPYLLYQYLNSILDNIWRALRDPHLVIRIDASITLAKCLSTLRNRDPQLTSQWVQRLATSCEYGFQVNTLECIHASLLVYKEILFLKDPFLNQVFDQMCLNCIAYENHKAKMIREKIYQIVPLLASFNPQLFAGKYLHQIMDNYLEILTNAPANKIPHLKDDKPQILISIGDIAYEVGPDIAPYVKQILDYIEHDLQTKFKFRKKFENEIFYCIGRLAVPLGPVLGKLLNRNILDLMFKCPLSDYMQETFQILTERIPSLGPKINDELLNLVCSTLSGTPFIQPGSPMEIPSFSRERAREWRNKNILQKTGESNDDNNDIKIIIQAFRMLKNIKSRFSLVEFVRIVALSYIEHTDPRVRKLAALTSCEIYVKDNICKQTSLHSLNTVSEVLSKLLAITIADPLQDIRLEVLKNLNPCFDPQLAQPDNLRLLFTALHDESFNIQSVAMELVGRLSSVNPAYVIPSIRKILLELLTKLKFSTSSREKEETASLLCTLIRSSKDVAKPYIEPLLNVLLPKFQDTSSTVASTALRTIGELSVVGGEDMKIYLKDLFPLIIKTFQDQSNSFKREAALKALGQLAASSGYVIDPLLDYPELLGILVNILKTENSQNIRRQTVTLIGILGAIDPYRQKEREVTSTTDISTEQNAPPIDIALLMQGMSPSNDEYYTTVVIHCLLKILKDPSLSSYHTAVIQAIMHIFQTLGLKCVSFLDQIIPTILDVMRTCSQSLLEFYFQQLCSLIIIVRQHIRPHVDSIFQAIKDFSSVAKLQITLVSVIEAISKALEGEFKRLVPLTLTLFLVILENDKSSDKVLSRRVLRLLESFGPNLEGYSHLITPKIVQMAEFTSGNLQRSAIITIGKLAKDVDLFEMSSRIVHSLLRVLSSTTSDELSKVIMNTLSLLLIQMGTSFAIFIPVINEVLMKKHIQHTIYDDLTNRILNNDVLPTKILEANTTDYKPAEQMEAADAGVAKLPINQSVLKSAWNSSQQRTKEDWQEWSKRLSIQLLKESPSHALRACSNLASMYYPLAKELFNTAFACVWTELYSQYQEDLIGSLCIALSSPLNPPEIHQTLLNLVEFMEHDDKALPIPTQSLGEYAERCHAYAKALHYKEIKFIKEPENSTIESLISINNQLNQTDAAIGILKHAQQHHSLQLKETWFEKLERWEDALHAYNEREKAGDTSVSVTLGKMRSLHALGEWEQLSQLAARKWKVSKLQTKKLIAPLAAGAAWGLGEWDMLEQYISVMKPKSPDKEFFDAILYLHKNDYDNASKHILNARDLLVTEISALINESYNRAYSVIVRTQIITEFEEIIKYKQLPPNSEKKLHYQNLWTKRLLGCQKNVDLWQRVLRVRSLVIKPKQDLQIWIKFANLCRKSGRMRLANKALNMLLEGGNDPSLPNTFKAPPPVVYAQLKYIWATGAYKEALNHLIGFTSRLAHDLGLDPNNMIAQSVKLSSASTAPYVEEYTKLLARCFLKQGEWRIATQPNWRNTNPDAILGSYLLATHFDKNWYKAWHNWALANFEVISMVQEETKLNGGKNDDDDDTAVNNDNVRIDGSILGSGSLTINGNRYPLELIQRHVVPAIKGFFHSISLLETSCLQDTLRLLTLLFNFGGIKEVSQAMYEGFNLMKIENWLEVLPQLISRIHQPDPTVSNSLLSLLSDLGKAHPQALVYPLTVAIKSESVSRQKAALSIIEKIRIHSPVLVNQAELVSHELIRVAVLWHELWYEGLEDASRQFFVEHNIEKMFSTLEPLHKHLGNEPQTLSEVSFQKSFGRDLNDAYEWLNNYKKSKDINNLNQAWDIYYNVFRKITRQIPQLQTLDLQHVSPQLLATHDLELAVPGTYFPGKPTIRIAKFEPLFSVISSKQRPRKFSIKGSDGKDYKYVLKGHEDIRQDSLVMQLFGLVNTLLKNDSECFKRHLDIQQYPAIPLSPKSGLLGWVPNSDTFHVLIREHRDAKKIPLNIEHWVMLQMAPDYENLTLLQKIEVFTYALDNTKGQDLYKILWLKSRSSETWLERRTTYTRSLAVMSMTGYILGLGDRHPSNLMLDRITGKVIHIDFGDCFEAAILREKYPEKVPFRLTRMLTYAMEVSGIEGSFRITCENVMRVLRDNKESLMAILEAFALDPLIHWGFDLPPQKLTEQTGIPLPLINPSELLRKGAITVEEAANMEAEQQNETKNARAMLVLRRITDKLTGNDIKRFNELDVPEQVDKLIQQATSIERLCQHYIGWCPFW
T1 sequence (Q08921 whole entry partner): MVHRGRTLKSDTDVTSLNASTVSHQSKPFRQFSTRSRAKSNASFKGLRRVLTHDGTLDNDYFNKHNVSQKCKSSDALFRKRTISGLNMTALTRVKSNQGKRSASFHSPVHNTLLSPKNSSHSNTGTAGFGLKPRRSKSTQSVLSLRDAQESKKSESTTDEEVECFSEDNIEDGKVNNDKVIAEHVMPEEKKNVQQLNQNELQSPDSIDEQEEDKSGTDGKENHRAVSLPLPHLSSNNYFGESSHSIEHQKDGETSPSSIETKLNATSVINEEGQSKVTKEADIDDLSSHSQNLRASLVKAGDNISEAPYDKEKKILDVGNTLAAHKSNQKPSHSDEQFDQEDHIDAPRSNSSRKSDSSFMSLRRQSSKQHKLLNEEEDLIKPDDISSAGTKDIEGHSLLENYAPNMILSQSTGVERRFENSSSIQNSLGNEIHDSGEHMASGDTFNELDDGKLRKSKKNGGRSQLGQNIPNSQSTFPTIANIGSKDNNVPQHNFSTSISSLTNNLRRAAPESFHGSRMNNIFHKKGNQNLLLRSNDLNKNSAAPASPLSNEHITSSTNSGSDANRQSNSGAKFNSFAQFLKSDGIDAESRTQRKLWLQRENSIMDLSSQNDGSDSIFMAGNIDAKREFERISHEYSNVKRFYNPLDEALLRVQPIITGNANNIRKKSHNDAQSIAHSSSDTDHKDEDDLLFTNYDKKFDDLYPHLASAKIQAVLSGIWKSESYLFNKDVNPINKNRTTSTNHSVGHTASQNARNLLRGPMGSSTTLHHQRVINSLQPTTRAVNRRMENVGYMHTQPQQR
T1 sequence (P38873 whole entry partner): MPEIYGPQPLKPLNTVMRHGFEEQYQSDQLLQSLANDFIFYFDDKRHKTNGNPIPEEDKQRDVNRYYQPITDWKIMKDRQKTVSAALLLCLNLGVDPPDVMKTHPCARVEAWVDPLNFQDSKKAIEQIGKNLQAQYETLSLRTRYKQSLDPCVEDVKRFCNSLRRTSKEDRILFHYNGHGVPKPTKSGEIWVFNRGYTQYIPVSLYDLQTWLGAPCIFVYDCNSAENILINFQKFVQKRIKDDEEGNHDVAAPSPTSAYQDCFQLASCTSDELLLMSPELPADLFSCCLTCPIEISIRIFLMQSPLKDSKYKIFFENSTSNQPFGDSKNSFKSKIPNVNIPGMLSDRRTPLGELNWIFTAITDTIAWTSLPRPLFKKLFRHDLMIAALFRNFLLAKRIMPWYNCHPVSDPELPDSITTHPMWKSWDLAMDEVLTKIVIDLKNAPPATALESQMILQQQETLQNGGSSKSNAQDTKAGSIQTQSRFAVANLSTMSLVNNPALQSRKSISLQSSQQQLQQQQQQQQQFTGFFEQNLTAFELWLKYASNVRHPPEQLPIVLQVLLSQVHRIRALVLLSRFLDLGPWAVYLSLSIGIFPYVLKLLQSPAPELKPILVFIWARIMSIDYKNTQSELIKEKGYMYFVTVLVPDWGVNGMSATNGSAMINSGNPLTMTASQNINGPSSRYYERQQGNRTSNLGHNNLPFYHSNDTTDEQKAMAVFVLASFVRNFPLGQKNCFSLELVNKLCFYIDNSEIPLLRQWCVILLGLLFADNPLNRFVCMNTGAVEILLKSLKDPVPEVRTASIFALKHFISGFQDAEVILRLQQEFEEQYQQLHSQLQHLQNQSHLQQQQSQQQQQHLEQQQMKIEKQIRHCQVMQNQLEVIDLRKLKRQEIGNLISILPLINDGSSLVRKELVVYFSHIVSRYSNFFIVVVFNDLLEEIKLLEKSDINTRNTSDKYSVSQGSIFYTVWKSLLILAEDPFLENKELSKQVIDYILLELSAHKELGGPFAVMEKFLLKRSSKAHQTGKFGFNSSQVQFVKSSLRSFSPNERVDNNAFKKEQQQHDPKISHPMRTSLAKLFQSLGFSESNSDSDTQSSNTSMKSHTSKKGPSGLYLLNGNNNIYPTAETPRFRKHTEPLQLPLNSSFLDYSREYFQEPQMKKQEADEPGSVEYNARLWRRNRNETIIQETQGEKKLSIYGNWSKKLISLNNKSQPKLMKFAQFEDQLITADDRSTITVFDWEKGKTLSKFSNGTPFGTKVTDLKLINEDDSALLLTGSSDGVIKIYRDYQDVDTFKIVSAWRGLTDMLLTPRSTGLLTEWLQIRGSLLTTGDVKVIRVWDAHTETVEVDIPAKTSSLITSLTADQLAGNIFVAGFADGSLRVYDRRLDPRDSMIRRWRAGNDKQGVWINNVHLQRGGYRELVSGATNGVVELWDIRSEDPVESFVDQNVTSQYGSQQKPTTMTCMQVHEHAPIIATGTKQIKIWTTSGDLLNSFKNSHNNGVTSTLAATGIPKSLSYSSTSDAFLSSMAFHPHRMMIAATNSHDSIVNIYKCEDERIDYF
T1 sequence (P41318 whole entry partner): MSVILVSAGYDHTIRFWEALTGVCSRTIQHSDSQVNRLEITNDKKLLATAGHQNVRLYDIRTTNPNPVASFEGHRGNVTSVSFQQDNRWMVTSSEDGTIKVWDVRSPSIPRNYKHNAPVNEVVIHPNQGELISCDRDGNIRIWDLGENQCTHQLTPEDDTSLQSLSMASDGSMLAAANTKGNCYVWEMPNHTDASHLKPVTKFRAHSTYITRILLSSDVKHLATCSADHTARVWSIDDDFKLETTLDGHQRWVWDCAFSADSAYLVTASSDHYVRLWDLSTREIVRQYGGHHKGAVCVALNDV

Compound | Kd [1] [nM] | Fraction bound transformed (MST, TORC1 target) (TORC1 [2]; [5]) | Fraction bound transformed (MST, TORC1 target) (TORC1 [2]; [6]) | Fraction bound transformed (MST, TORC1 target) (TORC1 [2]; [7]) | Kd (TORC1 [3]) [nM] | Fraction bound transformed (MST, TORC1 target) (TORC1 [3]; titrated protein 2.44141e-9 M) | Fraction bound transformed (MST, TORC1 target) (TORC1 [3]; titrated protein 9.76563e-9 M) | Fraction bound transformed (MST, TORC1 target) (TORC1 [3]; titrated protein 1.95313e-8 M) | Fraction bound transformed (MST, TORC1 target) (TORC1 [3]; titrated protein 7.8125e-8 M) | Fraction bound transformed (MST, TORC1 target) (TORC1 [3]; titrated protein 3.125e-7 M) | Fraction bound transformed (MST, TORC1 target) (TORC1 [3]; titrated protein 6.25e-7 M) | Fraction bound transformed (MST, TORC1 target) (TORC1 [3]; titrated protein 1.25e-6 M) | Fraction bound transformed (MST, TORC1 target) (TORC1 [3]; titrated protein 2.5e-6 M) | Fraction bound transformed (MST, TORC1 target) (TORC1 [3]; titrated protein 5e-6 M) | Fraction bound transformed (MST, TORC1 target) (TORC1 [3]; titrated protein 1e-5 M) | Fraction bound transformed (MST, TORC1 target) (TORC1 [3]; titrated protein 2e-5 M) | further results
CO[C@H]1C[C@@H]2CC[C@@H](C)[C@@](O)(O2)C(=O)C(=O)N2CCCC[C@H]2C(=O)O[C@H]([C@H](C)C[C@@H]2CC[C@@H](O)[C@H](OC)C2)CC(=O)[C@H](C)/C=C(\C)[C@@H](O)[C@@H](OC)C(=O)[C@H](C)C[C@H](C)/C=C/C=C/C=C/1C [rapamycin] | – | – | – | – | – | – | – | – | – | – | – | – | – | – | – | – | combined effect of rapamycin and cerulenin on yeast growth (yeast cells): additive effect
Acc1 purified from yeast (from UniProt Q00955 1-2233) (enzyme) | 49.1 | – | – | – | – | – | – | – | – | – | – | – | – | – | – | – | –
Acc1: yeast acetyl-CoA carboxylase purified from yeast through TAP-tag immuno-enrichment | – | 0.03811 | 0.4481 | 0.735 | 49.1 ± 28.3 | 0.1107 | -0.03249 | 0.3896 | 0.8094 | 0.5572 | 0.7617 | 0.8055 | 0.9274 | 1.054 | 1.011 | 0.9376 | Fraction bound transformed (MST, TORC1 target) (TORC1 [3]; titrated protein 4e-5 M): 1.262; Fraction bound transformed (MST, TORC1 target) (TORC1 [3]; titrated protein 8e-5 M): 1.2067
BSA-C16:0 | – | – | – | – | – | – | – | – | – | – | – | – | – | – | – | – | C16:0 (peak area), Mean [4]: 531779
Fas1 purified from yeast (from UniProt P07149 1-2051) (enzyme) | 23.7 | – | – | – | – | – | – | – | – | – | – | – | – | – | – | – | –
Fas1: yeast FA synthase subunit purified from yeast through TAP-tag immuno-enrichment | – | 0.2698 | 0.7564 | 0.5063 | 23.7 ± 15.4 | 0.1633 | 0.4832 | 0.1917 | 0.6873 | 0.978 | 1.128 | 1.25 | 1.151 | 0.8443 | 0.9239 | 0.8697 | Fraction bound transformed (MST, TORC1 target) (TORC1 [2]; titrated protein 1.2207E-09 M, Fig. 6e): -0.03697; Fraction bound transformed (MST, TORC1 target) (TORC1 [2]; titrated protein 6.1035E-10 M, Fig. 6e): -0.1692
